Two variants from IntAct's records for PubMed 19412162 can be followed below.

To fix the notation:
B1: F-box only protein 31 (Homo sapiens), Q5XUX0 (parent)
chain: MAVCARLCGVGPSRGCRRRQQRRGPAETAAADSEPDTDPEEERIEASAGVGGGLCAGPSPPPPRCSLLELPPELLVEIFASLPGTDLPSLAQVCTKFRRILHTDTIWRRRCREEYGVCENLRKLEITGVSCRDVYAKLLHRYRHILGLWQPDIGPYGGLLNVVVDGLFIIGWMYLPPHDPHVDDPMRFKPLFRIHLMERKAATVECMYGHKGPHHGHIQIVKKDEFSTKCNQTDHHRMSGGRQEEFRTWLREEWGRTLEDIFHEHMQELILMKFIYTSQYDNCLTYRRIYLPPSRPDDLIKPGLFKGTYGSHGLEIVMLSFHGRRARGTKITGDPNIPAGQQTVEIDLRHRIQLPDLENQRNFNELSRIVLEVRERVRQEQQEGGHEAGEGRGRQGPRESQPSPAQPRAEAPSKGPDGTPGEDGGEPGDAVAAAEQPAQCGQGQPFVLPVGVSSRNEDYPRTCRMCFYGTGLIAGHGFTSPERTPGVFILFDEDRFGFVWLELKSFSLYSRVQATFRNADAPSPQAFDEMLKNIQSLTS

The variants in the assay derive from B1. The following applies: with atm_human ATM.
Regarding S400A, the “effect of a mutation on the interaction” value is “disrupting interaction”. Take S278A: the “effect of a mutation on the interaction” value is on record as “disrupting interaction”.
